Results reported in US20190241648A1 (STATEN BIOTECHNOLOGY B V, published 2019).
Ends that are not written are not given here.

Tests used:
Experiment in all cases: cyclic peptide substitution array
[1] = target: T1, ApoC3 peptide D66Q (human, not fully specified; cyclic (thioether))
T1 peptide: DKFSEFWQLDPEV
Source text: (§1) S62 and D68 of mature huApoC3 were also highly conserved; substitution of S62 by A or V, and substitution of D68 by E or P, caused decrease of spot intensities by ˜60% or higher. […] Amino acid F64 was completely variable.
(§2) Pre: staining of one of the ApoC3 peptide microarrays was done with the secondary antibody goat anti-human IgG (Fe) DyLight680 (1:5000) and control antibody mouse monoclonal anti-HA (12CA5) DyLight800 (1:2000) to investigate background interactions of the secondary antibody with the antigen-derived peptides that could interfere with the main assays. Subsequent incubation of other ApoC3 peptide microarrays with antibody samples was followed by staining with secondary and control antibodies as well as read-out at scanning intensities of 7/7 (red/green). The additional HA peptides framing the peptide arrays were stained as internal quality control to confirm the assay quality and the peptide microarray integrity.

[2] = target: T2, ApoC3 peptide D68F (human, cyclic (thioether))
T2 peptide: DKFSEFWDLFPEV
Source text: as §1, §2

[3] = target: T3, ApoC3 peptide D68Q (human, cyclic (thioether))
T3 peptide: DKFSEFWDLQPEV
Source text: as §1, §2

[4] = target: T4, ApoC3 peptide D68H (human, cyclic (thioether))
T4 peptide: DKFSEFWDLHPEV
Source text: as §1, §2

[5] = target: T5, ApoC3 peptide P69R (human, not fully specified; cyclic (thioether))
T5 peptide: DKFSEFWDLDREV
Source text: as §1, §2

[6] = target: T6, ApoC3 peptide F64I (human, thioether (positions not given here); not fully specified (bridges); also: cyclic (thioether), positions not given here)
T6 peptide: DKFSEIWDLDPEV
Source text: as §1, §2

[7] = target: T7, ApoC3 peptide F61E (human, cyclic (thioether))
T7 peptide: DKESEFWDLDPEV
Source text: as §1, §2

[8] = target: T8, ApoC3 peptide E63R (human, cyclic (thioether))
T8 peptide: DKFSRFWDLDPEV
Source text: as §1, §2

[9] = target: T9, ApoC3 peptide V71R (human, not fully specified; cyclic (thioether))
T9 peptide: DKFSEFWDLDPER
Source text: as §1, §2

[10] = target: T10, ApoC3 peptide D66M (human, not fully specified; cyclic (thioether))
T10 peptide: DKFSEFWMLDPEV
Source text: as §1, §2

[11] = target: T11, ApoC3 peptide D66F (human, not fully specified; cyclic (thioether))
T11 peptide: DKFSEFWFLDPEV
Source text: as §1, §2

[12] = target: T12, ApoC3 peptide D68S (human, cyclic (thioether))
T12 peptide: DKFSEFWDLSPEV
Source text: as §1, §2

[13] = target: T13, ApoC3 peptide E63P (human, cyclic (thioether))
T13 peptide: DKFSPFWDLDPEV
Source text: as §1, §2

[14] = target: T14, ApoC3 peptide K60G (human, cyclic (thioether))
T14 peptide: DGFSEFWDLDPEV
Source text: as §1, §2

[15] = target: T15, ApoC3 peptide S62Y (human, thioether (positions not given here); also: cyclic (thioether), ring places not given here)
T15 peptide: DKFYEFWDLDPEV
Source text: as §1, §2

[16] = target: T16, ApoC3 peptide W65M (human, cyclic (thioether))
T16 peptide: DKFSEFMDLDPEV
Source text: as §1, §2

[17] = target: T17, ApoC3 peptide F64G (human, thioether (positions not given here); not fully specified (bridges); also: cyclic (thioether), positions not given here)
T17 peptide: DKFSEGWDLDPEV
Source text: as §1, §2

[18] = target: T18, ApoC3 peptide F61A (human, cyclic (thioether))
T18 peptide: DKASEFWDLDPEV
Source text: as §1, §2

[19] = target: T19, ApoC3 peptide D66L (human, not fully specified; cyclic (thioether))
T19 peptide: DKFSEFWLLDPEV
Source text: as §1, §2

[20] = target: T20, ApoC3 peptide V71Y (human, not fully specified; cyclic (thioether))
T20 peptide: DKFSEFWDLDPEY
Source text: as §1, §2

[21] = target: T21, ApoC3 peptide D68T (human, cyclic (thioether))
T21 peptide: DKFSEFWDLTPEV
Source text: as §1, §2

[22] = target: T22, ApoC3 peptide K60V (human, cyclic (thioether))
T22 peptide: DVFSEFWDLDPEV
Source text: as §1, §2

[23] = target: T23, ApoC3 peptide F61N (human, cyclic (thioether))
T23 peptide: DKNSEFWDLDPEV
Source text: as §1, §2

[24] = target: T24, ApoC3 peptide E70V (human, cyclic (thioether))
T24 peptide: DKFSEFWDLDPVV
Source text: as §1, §2

[25] = target: T25, ApoC3 peptide W65P (human, cyclic (thioether))
T25 peptide: DKFSEFPDLDPEV
Source text: as §1, §2

[26] = target: T26, ApoC3 peptide K60T (human, cyclic (thioether))
T26 peptide: DTFSEFWDLDPEV
Source text: as §1, §2

[27] = target: T27, ApoC3 peptide E70R (human, cyclic (thioether))
T27 peptide: DKFSEFWDLDPRV
Source text: as §1, §2

[28] = target: T28, ApoC3 peptide W65L (human, cyclic (thioether))
T28 peptide: DKFSEFLDLDPEV
Source text: as §1, §2

[29] = target: T29, ApoC3 peptide K60W (human, cyclic (thioether))
T29 peptide: DWFSEFWDLDPEV
Source text: as §1, §2

[30] = target: T30, ApoC3 peptide D66N (human, not fully specified; cyclic (thioether))
T30 peptide: DKFSEFWNLDPEV
Source text: as §1, §2

[31] = target: T31, ApoC3 peptide D68M (human, cyclic (thioether))
T31 peptide: DKFSEFWDLMPEV
Source text: as §1, §2

[32] = target: T32, ApoC3 peptide E70M (human, cyclic (thioether))
T32 peptide: DKFSEFWDLDPMV
Source text: as §1, §2

[33] = target: T33, ApoC3 peptide E70G (human, cyclic (thioether))
T33 peptide: DKFSEFWDLDPGV
Source text: as §1, §2

[34] = target: T34, ApoC3 peptide F61S (human, cyclic (thioether))
T34 peptide: DKSSEFWDLDPEV
Source text: as §1, §2

% of binding to wild-type peptide [1]: 0%
% of binding to wild-type peptide [2]: 0%
% of binding to wild-type peptide [3]: 0.96%
% of binding to wild-type peptide [4]: 0%
% of binding to wild-type peptide [5]: 20.1%
% of binding to wild-type peptide [6]: 69.3%
% of binding to wild-type peptide [7]: 180%
% of binding to wild-type peptide [8]: 2.19%
% of binding to wild-type peptide [9]: 57.3%
% of binding to wild-type peptide [10]: 0%
% of binding to wild-type peptide [11]: 0%
% of binding to wild-type peptide [12]: 0.17%
% of binding to wild-type peptide [13]: 81.2%
% of binding to wild-type peptide [14]: 143%
% of binding to wild-type peptide [15]: 0%
% of binding to wild-type peptide [16]: 0%
% of binding to wild-type peptide [17]: 212%
% of binding to wild-type peptide [18]: 17.4%
% of binding to wild-type peptide [19]: 0%
% of binding to wild-type peptide [20]: 87.4%
% of binding to wild-type peptide [21]: 0.65%
% of binding to wild-type peptide [22]: 101%
% of binding to wild-type peptide [23]: 25.9%
% of binding to wild-type peptide [24]: 57%
% of binding to wild-type peptide [25]: 0%
% of binding to wild-type peptide [26]: 177%
% of binding to wild-type peptide [27]: 35.8%
% of binding to wild-type peptide [28]: 0%
% of binding to wild-type peptide [29]: 41.9%
% of binding to wild-type peptide [30]: 0%
% of binding to wild-type peptide [31]: 2.82%
% of binding to wild-type peptide [32]: 74%
% of binding to wild-type peptide [33]: 46.1%
% of binding to wild-type peptide [34]: 22.6%
B1: Llama antibody 5E5 (antibody, V domains shown)
VH: QLQLVESGGGLVQPGGSLRLSCAASGFTFGTYSMRWVRQVPRKALEWVSSISTDGGGTAYRDSVKGRFTISRDNAKNTLYLQMNNLKPEDTAIYYCVIAGYSDWGQGTQVTVSS
VL: ATMLTQSPGSLSVVPGESASISCKTSQGLVHSDGKTYFYWFLQKPGQSPQQLIYQVSNRASGVPDRFTGSGSGTDFTLKISGVKAEDAGVYYCAQGTYYPHTFGSGTRLEIK
notes: detected with goat anti-human IgG (Fc); also called mAb 5E5
